B1: BBSome complex member BBS4 (Homo sapiens), Q96RK4 (parent)
chain: MAEERVATRTQFPVSTESQKPRQKKAPEFPILEKQNWLIHLHYIRKDYEACKAVIKEQLQETQGLCEYAIYVQALIFRLEGNIQESLELFQTCAVLSPQSADNLKQVARSLFLLGKHKAAIEVYNEAAKLNQKDWEISHNLGVCYIYLKQFNKAQDQLHNALNLNRHDLTYIMLGKIHLLEGDLDKAIEVYKKAVEFSPENTELLTTLGLLYLQLGIYQKAFEHLGNALTYDPTNYKAILAAGSMMQTHGDFDVALTKYRVVACAVPESPPLWNNIGMCFFGKKKYVAAISCLKRANYLAPFDWKILYNLGLVHLTMQQYASAFHFLSAAINFQPKMGELYMLLAVALTNLEDIENAKRAYAEAVHLDKCNPLVNLNYAVLLYNQGEKKNALAQYQEMEKKVSLLKDNSSLEFDSEMVEMAQKLGAALQVGEALVWTKPVKDPKSKHQTTSTSKPASFQQPLGSNQALGQAMSSAAAYRTLPSGAGGTSQFTKPPSLPLEPEPAVESSPTETSEQIREK
B2: BBSome complex member BBS1 (Homo sapiens), Q8NFJ9 (parent)
chain: MAAASSSDSDACGAESNEANSKWLDAHYDPMANIHTFSACLALADLHGDGEYKLVVGDLGPGGQQPRLKVLKGPLVMTESPLPALPAAAATFLMEQHEPRTPALALASGPCVYVYKNLRPYFKFSLPQLPPNPLEQDLWNQAKEDRIDPLTLKEMLESIRETAEEPLSIQSLRFLQLELSEMEAFVNQHKSNSIKRQTVITTMTTLKKNLADEDAVSCLVLGTENKELLVLDPEAFTILAKMSLPSVPVFLEVSGQFDVEFRLAAACRNGNIYILRRDSKHPKYCIELSAQPVGLIRVHKVLVVGSTQDSLHGFTHKGKKLWTVQMPAAILTMNLLEQHSRGLQAVMAGLANGEVRIYRDKALLNVIHTPDAVTSLCFGRYGREDNTLIMTTRGGGLIIKILKRTAVFVEGGSEVGPPPAQAMKLNVPRKTRLYVDQTLREREAGTAMHRAFQTDLYLLRLRAARAYLQALESSLSPLSTTAREPLKLHAVVQGLGPTFKLTLHLQNTSTTRPVLGLLVCFLYNEALYSLPRAFFKVPLLVPGLNYPLETFVESLSNKGISDIIKVLVLREGQSAPLLSAHVNMPGSEGLAAA
partner: B1 chain

Variants of: B1
Details: with pcm1_human PCM1, Q15154
pcm1_human PCM1, Q15154, sequence (Q15154 whole entry): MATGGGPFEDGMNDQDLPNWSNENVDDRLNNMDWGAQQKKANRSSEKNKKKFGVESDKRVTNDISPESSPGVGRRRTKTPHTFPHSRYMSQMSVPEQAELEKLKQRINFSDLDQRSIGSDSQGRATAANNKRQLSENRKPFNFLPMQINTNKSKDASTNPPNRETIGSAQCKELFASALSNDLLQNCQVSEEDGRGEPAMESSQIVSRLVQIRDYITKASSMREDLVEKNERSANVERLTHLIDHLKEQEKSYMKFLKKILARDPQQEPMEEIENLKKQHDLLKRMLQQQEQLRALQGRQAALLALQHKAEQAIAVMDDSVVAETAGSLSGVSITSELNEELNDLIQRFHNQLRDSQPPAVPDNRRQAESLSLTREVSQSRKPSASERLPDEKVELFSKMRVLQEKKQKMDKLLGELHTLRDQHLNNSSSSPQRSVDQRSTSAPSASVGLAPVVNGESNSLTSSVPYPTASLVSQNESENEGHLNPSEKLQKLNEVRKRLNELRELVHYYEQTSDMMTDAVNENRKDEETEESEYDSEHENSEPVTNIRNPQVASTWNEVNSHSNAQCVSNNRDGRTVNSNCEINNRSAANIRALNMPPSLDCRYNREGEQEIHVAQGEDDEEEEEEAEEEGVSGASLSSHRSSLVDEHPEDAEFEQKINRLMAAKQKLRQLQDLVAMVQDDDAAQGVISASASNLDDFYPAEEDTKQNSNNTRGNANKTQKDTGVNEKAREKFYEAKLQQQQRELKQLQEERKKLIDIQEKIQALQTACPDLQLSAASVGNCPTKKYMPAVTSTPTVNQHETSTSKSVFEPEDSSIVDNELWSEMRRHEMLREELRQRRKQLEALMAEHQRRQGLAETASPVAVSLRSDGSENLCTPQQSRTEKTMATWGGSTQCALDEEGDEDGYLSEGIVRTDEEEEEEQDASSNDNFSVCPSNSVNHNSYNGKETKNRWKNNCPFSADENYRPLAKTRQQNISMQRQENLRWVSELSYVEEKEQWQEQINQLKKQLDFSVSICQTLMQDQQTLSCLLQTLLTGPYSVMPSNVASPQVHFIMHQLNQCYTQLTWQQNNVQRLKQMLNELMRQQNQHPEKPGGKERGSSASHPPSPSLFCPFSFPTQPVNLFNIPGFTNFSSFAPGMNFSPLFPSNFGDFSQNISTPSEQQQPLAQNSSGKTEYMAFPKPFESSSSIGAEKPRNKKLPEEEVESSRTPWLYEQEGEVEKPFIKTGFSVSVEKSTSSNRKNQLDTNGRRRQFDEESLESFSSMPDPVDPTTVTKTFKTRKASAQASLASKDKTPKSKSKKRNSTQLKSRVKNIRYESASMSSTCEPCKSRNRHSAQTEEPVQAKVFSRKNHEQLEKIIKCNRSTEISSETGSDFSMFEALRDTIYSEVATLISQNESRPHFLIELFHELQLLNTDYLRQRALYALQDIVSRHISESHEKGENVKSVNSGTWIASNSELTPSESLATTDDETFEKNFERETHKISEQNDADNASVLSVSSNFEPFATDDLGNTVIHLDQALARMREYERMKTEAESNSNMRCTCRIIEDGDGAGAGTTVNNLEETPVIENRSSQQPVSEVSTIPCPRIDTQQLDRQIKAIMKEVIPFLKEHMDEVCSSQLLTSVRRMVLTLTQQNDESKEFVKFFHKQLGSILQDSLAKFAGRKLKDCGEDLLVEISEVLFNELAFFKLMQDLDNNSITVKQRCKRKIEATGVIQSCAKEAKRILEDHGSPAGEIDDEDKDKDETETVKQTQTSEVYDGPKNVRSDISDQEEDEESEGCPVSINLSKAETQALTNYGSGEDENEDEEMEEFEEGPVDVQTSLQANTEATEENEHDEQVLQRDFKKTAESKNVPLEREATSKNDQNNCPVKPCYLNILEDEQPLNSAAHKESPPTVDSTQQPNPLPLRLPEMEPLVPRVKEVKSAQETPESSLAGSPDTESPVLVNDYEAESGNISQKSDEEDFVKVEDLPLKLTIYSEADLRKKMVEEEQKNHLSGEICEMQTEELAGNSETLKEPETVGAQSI

Row | effect of a mutation on the interaction | Variant
1 | disrupting interaction | MAEERVATRTQFPVSTESQKPRQKKAPEFPILEKQNWLIHLHYIRKDYEACKAVIKEQLQETQGLCEYAIYVQALIFRLEGNIQESLELFQTCAVLSPQSADNLKQVARSLFLLGKHKAAIEVYNEAAKLNQKDWEISHNLGVCYIYLKQFNKAQDQLHNALNLNRHDLTYIMLGKIHLLEGDLDKAIEVYKKAVEFSPENTELLTTLGLLYLQLGIYQKAFEHLGNALTYDPTNYKAILAAGSMMQTHGDFDVALTKYRVVACAVPESPPLWNNIEMCFFGKKKYVAAISCLKRANYLAPFDWKILYNLGLVHLTMQQYASAFHFLSAAINFQPKMGELYMLLAVALTNLEDIENAKRAYAEAVHLDKCNPLVNLNYAVLLYNQGEKKNALAQYQEMEKKVSLLKDNSSLEFDSEMVEMAQKLGAALQVGEALVWTKPVKDPKSKHQTTSTSKPASFQQPLGSNQALGQAMSSAAAYRTLPSGAGGTSQFTKPPSLPLEPEPAVESSPTETSEQIREK [G277E]
2 | disrupting interaction | MAEERVATRTQFPVSTESQKPRQKKAPEFPILEKQNWLIHLHYIRKDYEACKAVIKEQLQETQGLCEYAIYVQALIFRLEGNIQESLELFQTCAVLSPQSADNLKQVARSLFLLGKHKAAIEVYNEAAKLNQKDWEISHNLGVCYIYLKQFNKAQDQLHNALNLNRHDLTYIMLGKIHLLEGDLDKAIEVYKKAVEFSPENTELLTTLGLLYLQLGIYQKAFEHLGNALTYDPTNYKAILAAGSMMQTHGDFDVALTKYRVVACAVPESPPLWNNIGMCFFGKKKYVAAISCLKPANYLAPFDWKILYNLGLVHLTMQQYASAFHFLSAAINFQPKMGELYMLLAVALTNLEDIENAKRAYAEAVHLDKCNPLVNLNYAVLLYNQGEKKNALAQYQEMEKKVSLLKDNSSLEFDSEMVEMAQKLGAALQVGEALVWTKPVKDPKSKHQTTSTSKPASFQQPLGSNQALGQAMSSAAAYRTLPSGAGGTSQFTKPPSLPLEPEPAVESSPTETSEQIREK [R295P]

Variants of: B2
Details: with bbs4_human BBS4, Q96RK4

Row | effect of a mutation on the interaction | Variant
3 | decreasing interaction | MAAASSSDSDACGAESNEANSKWLDAHYDPMANIHTFSACLALADLHGDGEYKLVVGDLGPGGQQPRLKVLKGPLVMTESPLPALPAAAATFLMEQHEPRTPALALASGPCVYVYKNLRPYFKFSLPQLPPNPLEQDLWNQAKEDRIDPLTLKEMLESIRETAEEPLSIQSLRFLQLELSEMEAFVNQHKSNSIKRQTVITTMTTLKKNLADEDAVSCLVLGTENKELLVLDPEAFTILAKMSLPSVPVFLEVSGQFDVEFRLAAACRNGNIYILRRDSKHPKYCIELSAQPVGLIRVHKVLVVGSTQDSLHGFTHKGKKLWTVQMPAAILTMNLLEQHSRGLQAVMAGLANGEVRIYRDKALLNVIHTPDAVTSLCFGRYGREDNTLIRTTRGGGLIIKILKRTAVFVEGGSEVGPPPAQAMKLNVPRKTRLYVDQTLREREAGTAMHRAFQTDLYLLRLRAARAYLQALESSLSPLSTTAREPLKLHAVVQGLGPTFKLTLHLQNTSTTRPVLGLLVCFLYNEALYSLPRAFFKVPLLVPGLNYPLETFVESLSNKGISDIIKVLVLREGQSAPLLSAHVNMPGSEGLAAA [M390R]
